{"source": "paper PMC5903867", "about": "“Hexameric and pentameric complexes of the ExbBD energizer in the Ton system” (eLife, 2018)", "binders": {"B1": {"name": "ExbB (natural protein, Escherichia coli, UniProt P0ABU7 1-244, looked up)", "chain": "MGNNLMQTDLSVWGMYQHADIVVKCVMIGLILASVVTWAIFFSKSVEFFNQKRRLKREQQLLAEARSLNQANDIAADFGSKSLSLHLLNEAQNELELSEGSDDNEGIKERTSFRLERRVAAVGRQMGRGNGYLATIGAISPFVGLFGTVWGIMNSFIGIAQTQTTNLAVVAPGIAEALLATAIGLVAAIPAVVIYNVFARQIGGFKAMLGDVAAQVLLLQSRDLDLEASAAAHPVRVAQKLRAG", "notes": "ExbB, Escherichia coli, full length; inner membrane protein of the Ton system; residues about 10-234 resolved in the crystal; Forms hexamers and pentamers depending on pH, so copies is left open; also called ExbB hexamer; ExbB pentamer; source: E. coli BL21 (DE3) Gold, pET-21b, co-expressed with ExbD, purified from the membrane fraction in detergent (IMAC, SEC); not shown: His6, C-terminal, kept"}}, "key": {"[1]": {"target": "the molecule itself", "experiment": "cryo-EM structure; single particle, frozen-hydrated ExbBD complex in LMNG, 10 mM Na-citrate pH 5.4; reference-free 2D classification and 3D reconstruction of the pentameric complex at 7.1 Å, 5-fold symmetry enforced"}, "[2]": {"target": "the molecule itself", "experiment": "crystal structure; ExbBD complex purified in C8E4 or C10E5; crystals grown at pH 9.0 (0.1 M glycine, 0.15 M CaCl2, ~40% PEG 350 MME), 20°C; space group P2_(1), 2.8 Å, molecular replacement"}, "[3]": {"target": "the molecule itself", "experiment": "cryo-EM structure; single particle, frozen-hydrated ExbBD complex in LMNG, 10 mM Tris-HCl pH 8.0; reference-free 2D classification and 3D reconstruction of the hexameric complex at 6.7 Å, no symmetry applied"}, "[4]": {"target": "the molecule itself", "experiment": "negative-stain EM of 2D crystals; purified ExbBD complex (C8E4) reconstituted with E. coli total lipid extract by dialysis, 25 mM Na-citrate pH 5.4, 150 mM NaCl, 4°C; Fourier filtering of crystal patches"}, "ExbB [5]": {"target": "B1", "experiment": "cryo-EM structure; single particle, frozen-hydrated ExbBD complex in LMNG, 10 mM Na-citrate pH 5.4; reference-free 2D classification and 3D reconstruction of the pentameric complex at 7.1 Å, 5-fold symmetry enforced", "conditions": "both partners purified"}, "ExbB [6]": {"target": "B1", "experiment": "cryo-EM structure; single particle, frozen-hydrated ExbBD complex in LMNG, 10 mM Tris-HCl pH 8.0; reference-free 2D classification and 3D reconstruction of the hexameric complex at 6.7 Å, no symmetry applied", "conditions": "both partners purified"}}}
{"binder": "B1", "values": [{"measurement": "ratio of pentamer to hexamer", "setting": "[1]", "value": 3, "unit": "pentamer per hexamer"}, {"measurement": "stoichiometry N", "setting": "[2]", "value": 6, "unit": "subunits"}, {"measurement": "ratio of hexamer to pentamer (printed as pentamer:hexamer)", "setting": "[3]", "value": 3, "unit": "hexamer per pentamer"}, {"measurement": "stoichiometry N", "setting": "[4]", "value": 5, "unit": "subunits"}]}
{"binder": "ExbD (natural protein, Escherichia coli, UniProt P0ABV2 1-141, looked up, ExbD, Escherichia coli, full length, no tag; only the TM helix is modelled in the cryo-EM maps; The PDB entries hold only the TM helix (ExbDTM) of ExbD; also called ExbDTM (its TM helix as modelled); ExbD trimer; source: E. coli BL21 (DE3) Gold, pET-21b, co-expressed with ExbB-His6, co-purified in detergent (IMAC, SEC)) MAMHLNENLDDNGEMHDINVTPFIDVMLVLLIIFMVAAPLATVDVKVNLPASTSTPQPRPEKPVYLSVKADNSMFIGNDPVTDETMITALNALTEGKKDTTIFFRADKTVDYETLMKVMDTLHQAGYLKIGLVGEETAKAK", "values": [{"measurement": "stoichiometry N", "setting": "ExbB [5]", "value": 1, "unit": "ExbD per ExbB pentamer"}, {"measurement": "stoichiometry N", "setting": "ExbB [6]", "value": 3, "unit": "ExbD per ExbB hexamer"}, {"measurement": "stoichiometry N", "setting": "[3]", "value": 3, "unit": "subunits"}]}
